Results from patent publication US20080175935A1, “Method to Treat Skin Conditions with Narcissus Tazetta Bulb Extract” (NuSkin International, Inc., priority 2004, published 2008).

Tested on: arNOX
Test: arNOX assay: ferricytochrome c reduction (superoxide production) in sera
Assay type: biochemical, human
Details: for Rate of reduction of ferricytochrome c, +Proteinase K: pooled serum
Excerpt: Reduction of ferric cytochrome c by superoxide was employed as a standard measure of superoxide formation (Mayo, L. A. and Cumutte, J. (1990) Meth. Enzyme. 186, 567-575. 7. Butler, J, Koppenol, W. H. and Margollash, E. (1982) J. Biol. Chem. 257, 10747).
Assays of ferric cytochrome c reduction in sera compared 53 samples from young (20 to 40 y) and 65 samples from aged (80 to 100) individuals. […]
Measurement of arNOX activity based on ferricytochrome c reduction as a measure of superoxide production were taken. The rate of reduction of ferricytochrome c was determined from the increase in absorbance at 550 nm with 540 nm as reference. This is a widely accepted method when coupled to superoxide dismutase inhibition for the measurement of superoxide generation. The assay consists of 150 μl (2 mg/ml) of oxidized ferricytochrome c solution and 150 μl serum or 40 μl buffy coats in PBSG buffer (8.06 g NaCl, 0.2 g KCl, 0.18 g Na2HPO4, 0.26 g KH2PO4, 0.13 g CaCl2, 0.1 g MgCl2, 1.35 g glucose dissolved in 1000 ml deionized water, adjusted to pH 7.4, filtered and stored at 4° C.). Rates were determined using a SLM Aminco DW-2000 spectrophotometer (Milton Roy, Rochester, N.Y., USA) in the dual wave length mode of operation with continuous measurements over 1 min every 1.5 min. After 45 min, test compound was added and the reaction was continued for 45 min. A millimolar extinction coefficient of 19.1 cm^−1 was used for reduced ferricytochrome c. (D. M. Morré, F. Guo and D. J. Morré, 2003, Mol. Cell. Biochem. 254: […]).

Rate of reduction of ferricytochrome c, +Proteinase K (35-45 males): 0.27 ± 0.16 nmoles min^−1 mi serum^−1
Rate of reduction of ferricytochrome c, +Proteinase K (75-85 females): 1.0 ± 0.18 nmoles min^−1 mi serum^−1
Rate of reduction of ferricytochrome c, +Proteinase K (75-85 males): 0.72 ± 0.14 nmoles min^−1 mi serum^−1
Rate of reduction of ferricytochrome c, +Proteinase K (<35 y females): 0.26 ± 0.17 nmoles min^−1 mi serum^−1
Rate of reduction of ferricytochrome c, +Proteinase K (>90 females): 0.94 ± 0.24 nmoles min^−1 mi serum^−1
change in the rate of arNOX following proteinase K digestion (sera): no significant decrease
Superoxide production (reduction of ferricytochrome c), without superoxide dismutase (sera of aged (80-98 y) individuals, after proteinase K, n = 10): 0.6 ± 0.2 Nmoles/min/mi/sera
B1: Proteinase K: protease used to digest sera (protein, UniProt P06873 106-384, looked up)
Proteinase K: AAQTNAPWGLARISSTSPGTSTYYYDESAGQGSCVYVIDTGIEASHPEFEGRAQMVKTYYYSSRDGNGHGTHCAGTVGSRTYGVAKKTQLFGVKVLDDNGSGQYSTIIAGMDFVASDKNNRNCPKGVVASLSLGGGYSSSVNSAAARLQSSGVMVAVAAGNNNADARNYSPASEPSVCTVGASDRYDRRSSFSNYGSVLDIFGPGTSILSTWIGGSTRSISGTSMATPHVAGLAAYLMTLGKTTAASACRYIADTANKGDLSNIPFGTVNLLAYNNYQA
